Laboratory results reported in the supplement of paper PMC10567573.

B1: CCDC6 (parent)
chain: FTPPTSLTRAGMSYYNSPGLHVQH

Variants of: B1
Assay: protein stability index of a GFP-peptide fusion (GPS, HEK-293T) (PSI 1-6); higher = more stable
Conditions: c terminus: a fixed tail appended
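Note: lentivirally expressed fusions sorted by FACS into six bins by GFP to DsRed ratio, PSI derived from sequencing read proportions per bin multiplied by bin number.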

Variant	protein stability index
FTPPTSLTRAGMSCYNSPGLHVQH [Y14C]	1.93
FTPPTSLTRAGMSEYNSPGLHVQH [Y14E]	2.73
FTPPTSLTRAGMSDYNSPGLHVQH [Y14D]	3.09
FTPPTSLTRAGMSAYNSPGLHVQH [Y14A]	2.09
FTPPTSETRAGMSYYNSPGLHVQH [L7E]	2.12
FTPPTSWTRAGMSYYNSPGLHVQH [L7W]	2.33
FTPPTSVTRAGMSYYNSPGLHVQH [L7V]	1.56
FTPPTSTTRAGMSYYNSPGLHVQH [L7T]	1.89
FTPPTSFTRAGMSYYNSPGLHVQH [L7F]	2.4
FTPPTSDTRAGMSYYNSPGLHVQH [L7D]	1.62
FTPPTSPTRAGMSYYNSPGLHVQH [L7P]	2.33
FTPPTSRTRAGMSYYNSPGLHVQH [L7R]	2.04
FTPPTSHTRAGMSYYNSPGLHVQH [L7H]	2.28
FTPPTSATRAGMSYYNSPGLHVQH [L7A]	2.21
FTPPTSGTRAGMSYYNSPGLHVQH [L7G]	1.66
FTPPTSMTRAGMSYYNSPGLHVQH [L7M]	2.29
FTPPTSYTRAGMSYYNSPGLHVQH [L7Y]	2.39
FTPPTSCTRAGMSYYNSPGLHVQH [L7C]	2.61
FTPPTSNTRAGMSYYNSPGLHVQH [L7N]	1.7
FTPPTSSTRAGMSYYNSPGLHVQH [L7S]	1.7
FTPPTSKTRAGMSYYNSPGLHVQH [L7K]	2.59
FTPPTSITRAGMSYYNSPGLHVQH [L7I]	1.41
FTPPTSQTRAGMSYYNSPGLHVQH [L7Q]	2.38
FTPPTSLTMAGMSYYNSPGLHVQH [R9M]	1.81

Variant	protein stability index
FTPPTSLTAAGMSYYNSPGLHVQH [R9A]	2.1
FTPPTSLTHAGMSYYNSPGLHVQH [R9H]	1.27
FTPPTSLTLAGMSYYNSPGLHVQH [R9L]	2.82
FTPPTSLTCAGMSYYNSPGLHVQH [R9C]	2.58
FTPPTSLTFAGMSYYNSPGLHVQH [R9F]	2.94
FTPPTSLTVAGMSYYNSPGLHVQH [R9V]	1.58
FTPPTSLTQAGMSYYNSPGLHVQH [R9Q]	2.54
FTPPTSLTGAGMSYYNSPGLHVQH [R9G]	1.59
FTPPTSLTNAGMSYYNSPGLHVQH [R9N]	1.65
FTPPTSLTYAGMSYYNSPGLHVQH [R9Y]	3.32
FTPPTSLTTAGMSYYNSPGLHVQH [R9T]	1.47
FTPPTSLTSAGMSYYNSPGLHVQH [R9S]	1.79
FTPPTSLTKAGMSYYNSPGLHVQH [R9K]	1.71
FTPPTSLTIAGMSYYNSPGLHVQH [R9I]	1.45
FTPPTSLTDAGMSYYNSPGLHVQH [R9D]	2.77
FTPPTSLTEAGMSYYNSPGLHVQH [R9E]	2.63
FTPPTSLTRAGWSYYNSPGLHVQH [M12W]	2.4
FTPPTSLTRAGESYYNSPGLHVQH [M12E]	2.29
FTPPTSLTRAGTSYYNSPGLHVQH [M12T]	2.16
FTPPTSLTRAGPSYYNSPGLHVQH [M12P]	2.56
FTPPTSLTRAGRSYYNSPGLHVQH [M12R]	1.79
FTPPTSLTRAGLSYYNSPGLHVQH [M12L]	2.21
FTPPTSLTRAGGSYYNSPGLHVQH [M12G]	1.57
FTPPTSLTRAGCSYYNSPGLHVQH [M12C]	1.68

Variant	protein stability index
FTPPTSLTRAGKSYYNSPGLHVQH [M12K]	2.2
FTPPTSLTRAGQSYYNSPGLHVQH [M12Q]	1.73
FTPPTSLTRAGVSYYNSPGLHVQH [M12V]	1.99
FTPPTSLTRAGSSYYNSPGLHVQH [M12S]	2
FTPPTSLTRAGDSYYNSPGLHVQH [M12D]	2.19
FTPPTSLTRAGYSYYNSPGLHVQH [M12Y]	1.71
FTPPTSLTRAGFSYYNSPGLHVQH [M12F]	1.58
FTPPTSLTRAGASYYNSPGLHVQH [M12A]	1.84
FTPPTSLTRAGISYYNSPGLHVQH [M12I]	2.02
FTPPTSLTRAGNSYYNSPGLHVQH [M12N]	2.12
FTPPTSLTRAGHSYYNSPGLHVQH [M12H]	2.33
FTPPTSLTRKGMSYYNSPGLHVQH [A10K]	2.01
FTPPTSLTRRGMSYYNSPGLHVQH [A10R]	2.22
FTPPTSLTRDGMSYYNSPGLHVQH [A10D]	1.37
FTPPTSLTRYGMSYYNSPGLHVQH [A10Y]	2.72
FTPPTSLTRFGMSYYNSPGLHVQH [A10F]	2.33
FTPPTSLTRSGMSYYNSPGLHVQH [A10S]	2.06
FTPPTSLTRQGMSYYNSPGLHVQH [A10Q]	2
FTPPTSLTRMGMSYYNSPGLHVQH [A10M]	1.9
FTPPTSLTREGMSYYNSPGLHVQH [A10E]	2.15
FTPPTSLTRIGMSYYNSPGLHVQH [A10I]	1.75
FTPPTSLTRHGMSYYNSPGLHVQH [A10H]	2.09
FTPPTSLTRLGMSYYNSPGLHVQH [A10L]	1.2
FTPPTSLTRWGMSYYNSPGLHVQH [A10W]	3.03

Variant	protein stability index
FTPPTSLTRPGMSYYNSPGLHVQH [A10P]	1.91
FTPPTSLTRTGMSYYNSPGLHVQH [A10T]	1.68
FTPPTSLTRNGMSYYNSPGLHVQH [A10N]	2.23
FTPPTSLTRVGMSYYNSPGLHVQH [A10V]	1.98
FTPPTSLTRAGMRYYNSPGLHVQH [S13R]	1.87
FTPPTSLTRAGMNYYNSPGLHVQH [S13N]	1.77
FTPPTSLTRAGMCYYNSPGLHVQH [S13C]	1.55
FTPPTSLTRAGMHYYNSPGLHVQH [S13H]	1.67
FTPPTSLTRAGMYYYNSPGLHVQH [S13Y]	1.86
FTPPTSLTRAGMKYYNSPGLHVQH [S13K]	2.11
FTPPTSLTRAGMAYYNSPGLHVQH [S13A]	2.18
FTPPTSLTRAGMIYYNSPGLHVQH [S13I]	1.69
FTPPTSLTRAGMPYYNSPGLHVQH [S13P]	1.96
FTPPTSLTRAGMWYYNSPGLHVQH [S13W]	1.3
FTPPTSLTRAGMVYYNSPGLHVQH [S13V]	1.97
FTPPTSLTRAGMDYYNSPGLHVQH [S13D]	1.43
FTPPTSLTRAGMEYYNSPGLHVQH [S13E]	1.9
FTPPTSLTRAGMFYYNSPGLHVQH [S13F]	2.54
FTPPTSLTRAGMLYYNSPGLHVQH [S13L]	1.73
FTPPTSLTRAGMGYYNSPGLHVQH [S13G]	1.39
FTPPTSLTRAGMTYYNSPGLHVQH [S13T]	1.39
FTPPTSLTRAGMMYYNSPGLHVQH [S13M]	1.34
FTPPTSLLRAGMSYYNSPGLHVQH [T8L]	1.78
FTPPTSLDRAGMSYYNSPGLHVQH [T8D]	1.82

Variant	protein stability index
FTPPTSLSRAGMSYYNSPGLHVQH [T8S]	1.83
FTPPTSLERAGMSYYNSPGLHVQH [T8E]	1.41
FTPPTSLQRAGMSYYNSPGLHVQH [T8Q]	2.53
FTPPTSLWRAGMSYYNSPGLHVQH [T8W]	1.78
FTPPTSLFRAGMSYYNSPGLHVQH [T8F]	2.56
FTPPTSLARAGMSYYNSPGLHVQH [T8A]	1.76
FTPPTSLCRAGMSYYNSPGLHVQH [T8C]	2.73
FTPPTSLYRAGMSYYNSPGLHVQH [T8Y]	1.5
FTPPTSLNRAGMSYYNSPGLHVQH [T8N]	2.06
FTPPTSLHRAGMSYYNSPGLHVQH [T8H]	1.56
FTPPTSLKRAGMSYYNSPGLHVQH [T8K]	1.46
FTPPTSLMRAGMSYYNSPGLHVQH [T8M]	1.92
FTPPTSLIRAGMSYYNSPGLHVQH [T8I]	2.14
FTPPTSLVRAGMSYYNSPGLHVQH [T8V]	1.85
FTPPTSLPRAGMSYYNSPGLHVQH [T8P]	2.46
FTPPTSLGRAGMSYYNSPGLHVQH [T8G]	2.06
FTQPTSLTRAGMSYYNSPGLHVQH [P3Q]	2.32
FTWPTSLTRAGMSYYNSPGLHVQH [P3W]	1.21
FTTPTSLTRAGMSYYNSPGLHVQH [P3T]	2.35
FTRPTSLTRAGMSYYNSPGLHVQH [P3R]	2.14
FTYPTSLTRAGMSYYNSPGLHVQH [P3Y]	1.93
FTSPTSLTRAGMSYYNSPGLHVQH [P3S]	2.1
FTVPTSLTRAGMSYYNSPGLHVQH [P3V]	2.08
FTPPTNLTRAGMSYYNSPGLHVQH [S6N]	1.84

Variant	protein stability index
FTPPTQLTRAGMSYYNSPGLHVQH [S6Q]	2.21
FTPPTFLTRAGMSYYNSPGLHVQH [S6F]	2.98
FTPPTALTRAGMSYYNSPGLHVQH [S6A]	1.51
FTPPTRLTRAGMSYYNSPGLHVQH [S6R]	2.47
FTPPTLLTRAGMSYYNSPGLHVQH [S6L]	2.45
FTPPTILTRAGMSYYNSPGLHVQH [S6I]	2.2
FTPPTGLTRAGMSYYNSPGLHVQH [S6G]	2
FTPPTYLTRAGMSYYNSPGLHVQH [S6Y]	1.84
FTPPTVLTRAGMSYYNSPGLHVQH [S6V]	2.1
FTPPTELTRAGMSYYNSPGLHVQH [S6E]	1.91
FTPPTHLTRAGMSYYNSPGLHVQH [S6H]	1.66
FTPPTTLTRAGMSYYNSPGLHVQH [S6T]	1.73
FTPPTCLTRAGMSYYNSPGLHVQH [S6C]	2.1
FTPPTMLTRAGMSYYNSPGLHVQH [S6M]	1.65
FTPPTKLTRAGMSYYNSPGLHVQH [S6K]	1.51
FTPPTDLTRAGMSYYNSPGLHVQH [S6D]	1.79
FTPPTWLTRAGMSYYNSPGLHVQH [S6W]	2.27
FTPPYSLTRAGMSYYNSPGLHVQH [T5Y]	1.01
FTPPHSLTRAGMSYYNSPGLHVQH [T5H]	1.72
FTPPMSLTRAGMSYYNSPGLHVQH [T5M]	2.42
FTPPISLTRAGMSYYNSPGLHVQH [T5I]	1.84
FTPPKSLTRAGMSYYNSPGLHVQH [T5K]	1.54
FTPPQSLTRAGMSYYNSPGLHVQH [T5Q]	1.53
FTPPLSLTRAGMSYYNSPGLHVQH [T5L]	2.29

Variant	protein stability index
FTPPGSLTRAGMSYYNSPGLHVQH [T5G]	2.07
FTPPRSLTRAGMSYYNSPGLHVQH [T5R]	1.96
FTPPDSLTRAGMSYYNSPGLHVQH [T5D]	1.89
FTPPESLTRAGMSYYNSPGLHVQH [T5E]	2.29
FTPPPSLTRAGMSYYNSPGLHVQH [T5P]	1.68
FTPPASLTRAGMSYYNSPGLHVQH [T5A]	2
FTPPSSLTRAGMSYYNSPGLHVQH [T5S]	1.84
FTPPVSLTRAGMSYYNSPGLHVQH [T5V]	2.01
FTPPCSLTRAGMSYYNSPGLHVQH [T5C]	1.74
FTPPNSLTRAGMSYYNSPGLHVQH [T5N]	1.81
FTPPFSLTRAGMSYYNSPGLHVQH [T5F]	1.69
FTPPTSLTRACMSYYNSPGLHVQH [G11C]	1.71
FTPPTSLTRASMSYYNSPGLHVQH [G11S]	2.23
FTPPTSLTRATMSYYNSPGLHVQH [G11T]	2.17
FTPPTSLTRADMSYYNSPGLHVQH [G11D]	1.75
FTPPTSLTRAQMSYYNSPGLHVQH [G11Q]	1.98
FTPPTSLTRARMSYYNSPGLHVQH [G11R]	1.68
FTPPTSLTRAYMSYYNSPGLHVQH [G11Y]	2.12
FTPPTSLTRAVMSYYNSPGLHVQH [G11V]	1.56
FTPPTSLTRAMMSYYNSPGLHVQH [G11M]	1.91
FTPPTSLTRAHMSYYNSPGLHVQH [G11H]	1.69
FTPPTSLTRAKMSYYNSPGLHVQH [G11K]	1.19
FTPPTSLTRANMSYYNSPGLHVQH [G11N]	2.46
FTPPTSLTRAEMSYYNSPGLHVQH [G11E]	1.84

Variant	protein stability index
FTPPTSLTRAFMSYYNSPGLHVQH [G11F]	1.68
FTPPTSLTRAIMSYYNSPGLHVQH [G11I]	1.49
FTPPTSLTRAAMSYYNSPGLHVQH [G11A]	1.96
FTPPTSLTRALMSYYNSPGLHVQH [G11L]	1.97
FTPITSLTRAGMSYYNSPGLHVQH [P4I]	1.51
FTPFTSLTRAGMSYYNSPGLHVQH [P4F]	1.97
FTPNTSLTRAGMSYYNSPGLHVQH [P4N]	3.07
FTPQTSLTRAGMSYYNSPGLHVQH [P4Q]	2.48
FTPHTSLTRAGMSYYNSPGLHVQH [P4H]	2.19
FTPLTSLTRAGMSYYNSPGLHVQH [P4L]	4.29
FTPATSLTRAGMSYYNSPGLHVQH [P4A]	1.15
FTPETSLTRAGMSYYNSPGLHVQH [P4E]	1.99
FTPYTSLTRAGMSYYNSPGLHVQH [P4Y]	3.21
FTPSTSLTRAGMSYYNSPGLHVQH [P4S]	1.42
FTPRTSLTRAGMSYYNSPGLHVQH [P4R]	1.83
FTPTTSLTRAGMSYYNSPGLHVQH [P4T]	2.27
FTPCTSLTRAGMSYYNSPGLHVQH [P4C]	2.3
FTPDTSLTRAGMSYYNSPGLHVQH [P4D]	2.23
FTPVTSLTRAGMSYYNSPGLHVQH [P4V]	2.5
FTPMTSLTRAGMSYYNSPGLHVQH [P4M]	2.04
